{"source": "FireProtDB (doi:10.1021/bi052621g)", "proteins": {"B1": {"name": "Major seminal plasma glycoprotein PSP-II wild type, P35496 (protein)", "chain": "MKLGTAIPWALLLSTATLVSTARINGPDECGRVIKDTSGSISNTDRQKNLCTWTILMKPDQKVRMAIPYLNLACGKEYVEVFDGLLSGPSYGKLCAGAAIVFLSTANTMTIKYNRISGNSSSPFLIYFYGSSPGSEY"}, "B2": {"name": "Major seminal plasma glycoprotein PSP-I wild type, P35495 (protein)", "chain": "MKLGSAIPWALLFSTATLISTGWGLDYHACGGRLTDDYGTIFTYKGPKTECVWTLQVDPKYKLLVSIPTLNLTCGKEYVEILEGAPGSKSLGKFCEGLSILNRGSSGMTVKYKRDSGHPASPYEIIFLRDSQG"}}, "conditions": "Sus scrofa, pH 7, Thermal, Hepes 20 mM, reversible: No, whole UniProt chain shown", "note": "“And” between values parts separate entries of the source, which are not always exact repeats. Equal values may be shown once.", "data": [{"protein": "B1", "values": [{"measurement": "Tm", "setting": "CD", "result": 52.6, "unit": "°C"}]}, {"protein": "B2", "values": [{"measurement": "Tm", "setting": "DSC, ZnCl2 5 mM", "result": 51.1, "unit": "°C"}, {"measurement": "unfolding enthalpy (calorimetric)", "setting": "DSC, ZnCl2 5 mM", "result": 17.4, "unit": "kcal/mol"}, {"measurement": "unfolding enthalpy (calorimetric)", "setting": "DSC", "result": "18.4 kcal/mol and 20.8 kcal/mol"}]}]}
